Results on 18 molecules are retold here after US11833164B2, “Methods of treating Fabry disease in patients having a mutation in the GLA gene” (Amicus Therapeutics, Inc., priority 2019, dated 2023).

Residue numbers refer to the chain shown, from its start. Numbers in names are those of the source.

The test relates to mutant form of α-Gal A expressed in HEK-293 cells. Nature of the test: HEK assay (GLP HEK / Migalastat Amenability Assay): α-Gal A activity in lysates of transiently transfected HEK-293 cells incubated with or without 10 μM migalastat. Particulars: for Absolute increase (% WT): 10 μM migalastat versus baseline; for Relative increase: 10 μM migalastat α-Gal A activity relative to baseline; for 10 μM migalastat α-Gal A activity (% WT): 5 days; for 10 μM migalastat α-Gal A activity (% WT) / Baseline α-Gal A activity (% WT): percentage of baseline wild-type α-Gal A activity; for 10 μM migalastat α-Gal A activity (% WT) / Baseline α-Gal A activity (% WT) / Baseline α-Gal A activity / 10 μM migalastat α-Gal A activity: mean ± SEM; for Baseline α-Gal A activity (% WT): absence of migalastat; for Baseline α-Gal A activity / 10 μM migalastat α-Gal A activity: lysates of HEK-293 cells transfected with the mutant form; for Baseline α-Gal A activity: incubated 5 days in the absence of migalastat; for 10 μM migalastat α-Gal A activity: incubated 5 days with 10 μM migalastat. The class given is cell-based, human. The gist of the method: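 Activity reported as 4-MU released (nmol/mg/hr), mean±SEM, from lysates of transiently transfected HEK-293 cells expressing mutant α-Gal A, cultured with or without 10 μM migalastat.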

B1: V137I (protein)
chain: MQLRNPELHLGCALALRFLALVSWDIPGARALDNGLARTPTMGWLHWERFMCNLDCQEEPDSCISEKLFMEMAELMVSEGWKDAGYEYLCIDDCWMAPQRDSEGRLQADPQRFPHGIRQLANYVHSKGLKLGIYADIGNKTCAGFPGSFGYYDIDAQTFADWGVDLLKFDGCYCDSLENLADGYKHMSLALNRTGRSIVYSCEWPLYMWPFQKPNYTEIRQYCNHWRNFADIDDSWKSIKSILDWTSFNQERIVDVAGPGGWNDPDMLVIGNFGLSWNQQVTQMALWAIMAAPLFMSNDLRHISPQAKALLQDKDVIAINQDPLGKQGYQLRQGDNFEVWERPLSGLAWAVAMINRQEIGGPRSYTIAVASLGKGVACNPACFITQLLPVKRKLGFYEWTSRLRSHINPTGTVLLQLENTMQMSLKDLL
Regarding B1, the “Absolute increase (% WT)” value turned out to be 24.7 % WT, the Relative increase is given as 1.8, the “10 μM migalastat α-Gal A activity (% WT)” value came out at 57.4 ± 2.5 % WT and the “Baseline α-Gal A activity (% WT)” value worked out at 32.8 ± 1.6 % WT. The “Baseline α-Gal A activity” value came to 12148 ± 597 nmol/mg/h and the “10 μM migalastat α-Gal A activity” value stood at 21313 ± 987 nmol/mg/h.

B2: G144A (protein)
chain: B1 chain with I137V, G144A
Regarding B2, the “Absolute increase (% WT)” value worked out at 15.5 % WT, the Relative increase is 1.3, the “10 μM migalastat α-Gal A activity (% WT)” value was 60.4 ± 2.8 % WT and the “Baseline α-Gal A activity (% WT)” value is 44.9 ± 3.6 % WT. Also, the “Baseline α-Gal A activity” value stood at 20304 ± 1590 nmol/mg/h and the “10 μM migalastat α-Gal A activity” value was determined as 27268 ± 1039 nmol/mg/h.

B3: N139K (protein)
chain: B1 chain with I137V, N139K
For B3, the “Absolute increase (% WT)” value came out at 33.8 % WT, the Relative increase is 1.3, the “10 μM migalastat α-Gal A activity (% WT)” value amounted to 127.4 ± 8.8 % WT and the “Baseline α-Gal A activity (% WT)” value amounted to 93.6 ± 5.8 % WT. For the same molecule, the “Baseline α-Gal A activity” value turned out to be 33797 ± 2244 nmol/mg/h and the “10 μM migalastat α-Gal A activity” value is 45090 ± 2667 nmol/mg/h.

B4: V137L (protein)
chain: B1 chain with I137L
With B4, the “Absolute increase (% WT)” value worked out at 11.7 % WT, the Relative increase is listed as 1.3, the “10 μM migalastat α-Gal A activity (% WT)” value was determined as 53.3 ± 3.7 % WT and the “Baseline α-Gal A activity (% WT)” value is reported as 41.6 ± 2.1 % WT. For the same molecule, the “Baseline α-Gal A activity” value came out at 15359 ± 656 nmol/mg/h and the “10 μM migalastat α-Gal A activity” value came out at 19794 ± 1475 nmol/mg/h.

B5: G138A (protein)
chain: B1 chain with I137V, G138A
In the case of B5, the “Absolute increase (% WT)” value is recorded as 20.1 % WT, the Relative increase turned out to be 2.3, the “10 μM migalastat α-Gal A activity (% WT)” value came to 34.5 ± 1.5 % WT and the “Baseline α-Gal A activity (% WT)” value was 14.4 ± 1.1 % WT. Also, the “Baseline α-Gal A activity” value stood at 4768 ± 480 nmol/mg/h and the “10 μM migalastat α-Gal A activity” value was determined as 11112 ± 732 nmol/mg/h.

B6: A143G (protein)
chain: B1 chain with I137V, A143G
Take B6: the “Absolute increase (% WT)” value stood at 51.9 % WT, the Relative increase worked out at 1.8, the “10 μM migalastat α-Gal A activity (% WT)” value came to 119.7 ± 5.9 % WT and the “Baseline α-Gal A activity (% WT)” value is listed as 67.8 ± 3.4 % WT. The “Baseline α-Gal A activity” value amounted to 20419 ± 1260 nmol/mg/h and the “10 μM migalastat α-Gal A activity” value is 36821 ± 2997 nmol/mg/h.

B7: K140R (protein)
chain: B1 chain with I137V, K140R
Turning to B7, the “Absolute increase (% WT)” value was determined as 39.4 % WT, the Relative increase is 1.3, the “10 μM migalastat α-Gal A activity (% WT)” value was 180.9 ± 15 % WT and the “Baseline α-Gal A activity (% WT)” value stood at 141.5 ± 12 % WT. Also, the “Baseline α-Gal A activity” value is 50348 ± 3558 nmol/mg/h and the “10 μM migalastat α-Gal A activity” value came out at 62820 ± 3401 nmol/mg/h.

B8: T141S (protein)
chain: B1 chain with I137V, T141S
In the case of B8, the “Absolute increase (% WT)” value was 34.4 % WT, the Relative increase worked out at 1.5, the “10 μM migalastat α-Gal A activity (% WT)” value came to 98.2 ± 9.1 % WT and the “Baseline α-Gal A activity (% WT)” value was found to be 63.8 ± 7.1 % WT. Further, the “Baseline α-Gal A activity” value turned out to be 22602 ± 2254 nmol/mg/h and the “10 μM migalastat α-Gal A activity” value was 34806 ± 2770 nmol/mg/h.

B9: A143E (protein)
chain: B1 chain with I137V, A143E
With B9, the “Absolute increase (% WT)” value turned out to be 11.4 % WT, the Relative increase turned out to be 1.5, the “10 μM migalastat α-Gal A activity (% WT)” value was 37.3 ± 1.8 % WT and the “Baseline α-Gal A activity (% WT)” value is listed as 25.9 ± 1.5 % WT. The “Baseline α-Gal A activity” value was 7681 ± 439 nmol/mg/h and the “10 μM migalastat α-Gal A activity” value stood at 11458 ± 884 nmol/mg/h.

B10: K140E (protein)
chain: B1 chain with I137V, K140E
Take B10: the “Absolute increase (% WT)” value came out at 59.5 % WT, the Relative increase turned out to be 1.8, the “10 μM migalastat α-Gal A activity (% WT)” value was 132.1 ± 9 % WT and the “Baseline α-Gal A activity (% WT)” value amounted to 72.6 ± 5.8 % WT. For the same molecule, the “Baseline α-Gal A activity” value is 26053 ± 1925 nmol/mg/h and the “10 μM migalastat α-Gal A activity” value amounted to 46670 ± 2685 nmol/mg/h.

B11: K140I (protein)
chain: B1 chain with I137V, K140I
Turning to B11, the “Absolute increase (% WT)” value is 49.4 % WT, the Relative increase turned out to be 2.1, the “10 μM migalastat α-Gal A activity (% WT)” value turned out to be 92.1 ± 7.1 % WT and the “Baseline α-Gal A activity (% WT)” value is reported as 42.7 ± 3.3 % WT. Also, the “Baseline α-Gal A activity” value came to 15415 ± 1294 nmol/mg/h and the “10 μM migalastat α-Gal A activity” value is 32440 ± 2092 nmol/mg/h.

B12: N139I (protein)
chain: B1 chain with I137V, N139I
In the case of B12, the “Absolute increase (% WT)” value came out at 26.4 % WT, the Relative increase is listed as 1.5, the “10 μM migalastat α-Gal A activity (% WT)” value is reported as 78.3 ± 4.5 % WT and the “Baseline α-Gal A activity (% WT)” value is 51.8 ± 5.1 % WT. The “Baseline α-Gal A activity” value is 17180 ± 1455 nmol/mg/h and the “10 μM migalastat α-Gal A activity” value came to 26326 ± 1627 nmol/mg/h.

B13: K140Q (protein)
chain: B1 chain with I137V, K140Q
Regarding B13, the “Absolute increase (% WT)” value is given as 42.5 % WT, the Relative increase stood at 1.4, the “10 μM migalastat α-Gal A activity (% WT)” value stood at 165.7 ± 9.7 % WT and the “Baseline α-Gal A activity (% WT)” value is on record as 123.2 ± 12.1 % WT. The “Baseline α-Gal A activity” value is 42995 ± 3236 nmol/mg/h and the “10 μM migalastat α-Gal A activity” value was 59162 ± 3600 nmol/mg/h.

B14: G144R (protein)
chain: B1 chain with I137V, G144R
With B14, the “Absolute increase (% WT)” value worked out at 37.7 % WT, the Relative increase is reported as 2.0, the “10 μM migalastat α-Gal A activity (% WT)” value is recorded as 73.4 ± 6.5 % WT and the “Baseline α-Gal A activity (% WT)” value turned out to be 35.7 ± 2.8 % WT. The “Baseline α-Gal A activity” value turned out to be 10574 ± 838 nmol/mg/h and the “10 μM migalastat α-Gal A activity” value worked out at 21406 ± 1764 nmol/mg/h.

B15: N139H (protein)
chain: B1 chain with I137V, N139H
Consider B15, for which the “Absolute increase (% WT)” value was determined as 28.1 % WT, the Relative increase is 1.4, the “10 μM migalastat α-Gal A activity (% WT)” value is given as 101.2 ± 7.1 % WT and the “Baseline α-Gal A activity (% WT)” value was found to be 73.1 ± 5.4 % WT. Moreover, the “Baseline α-Gal A activity” value came to 29115 ± 2336 nmol/mg/h and the “10 μM migalastat α-Gal A activity” value amounted to 40678 ± 3158 nmol/mg/h.

B16: N139Y (protein)
chain: B1 chain with I137V, N139Y
On to B16, for which the “Absolute increase (% WT)” value is reported as 11.7 % WT, the Relative increase was determined as 1.2, the “10 μM migalastat α-Gal A activity (% WT)” value stood at 64 ± 5.2 % WT and the “Baseline α-Gal A activity (% WT)” value amounted to 52.3 ± 3.8 % WT. In addition, the “Baseline α-Gal A activity” value is 19998 ± 1682 nmol/mg/h and the “10 μM migalastat α-Gal A activity” value came out at 24303 ± 2079 nmol/mg/h.

B17: G144C (protein)
chain: B1 chain with I137V, G144C
As to B17, the “Absolute increase (% WT)” value is on record as 7.1 % WT, the Relative increase was determined as 3.9, the “10 μM migalastat α-Gal A activity (% WT)” value is on record as 9.5 ± 0.8 % WT and the “Baseline α-Gal A activity (% WT)” value was 2.5 ± 0.2 % WT. In addition, the “Baseline α-Gal A activity” value turned out to be 759 ± 69 nmol/mg/h and the “10 μM migalastat α-Gal A activity” value was determined as 2988 ± 262 nmol/mg/h.

B18: K140N (protein)
chain: B1 chain with I137V, K140N
B18: the “Absolute increase (% WT)” value came to 40.3 % WT, the Relative increase was 1.4, the “10 μM migalastat α-Gal A activity (% WT)” value was found to be 154.1 ± 11.1 % WT and the “Baseline α-Gal A activity (% WT)” value is on record as 113.8 ± 9.5 % WT. The “Baseline α-Gal A activity” value was 40575 ± 2928 nmol/mg/h and the “10 μM migalastat α-Gal A activity” value stood at 54681 ± 3030 nmol/mg/h.
